The results in this text go back to patent US20110081661A1, “Modified photoproteins with increased affinity for calcium and enhanced bioluminescence and uses thereof” (Millipore Corporation, priority 2009, published 2011).

What all share (type): cell-based
Assay [1] has as its target T1, H1 histamine receptor (Homo sapiens, UniProt P35367).
T1 construct: expressed in transfected cells; host or cells: U-2OS
Briefly: GPCR-mediated versus total bioluminescence in U-2OS cells (FIG. 4). The conditions noted are these: 10 μM histamine vs Triton X-100 with 1 mM calcium. The procedure: In another experiment, the ability of the various photoproteins to detect calcium flux in live cells was assessed by adding varying concentrations of histamine to cells in order to activate the H1 histamine receptor followed by measurement of bioluminescence of the various photoproteins. U-2OS cells were transfected with a cDNA encoding H1 histamine receptor along with a cDNA encoding either a wild-type photoprotein or a modified photoprotein according to the invention, as described above in Example 2, except that Lipofectamine-2000 (INVITROGEN) was used as the transfection reagent. On the second day, the cells were trypsinized, counted, and plated in a white tissue-culture treated 96-well plate (COSTAR) at a density of about 50,000 cells/well in growth media consisting of DMEM containing 10% fetal bovine serum, non-essential amino acids, HEPES and penicillin/streptomycin. On the third day, the medium was removed and cells were washed once with 200 μl/well of HBSS/HEPES (containing Ca^2+). Cells were subsequently incubated with 5 μM coelenterazine in HBSS/HEPES (containing Ca^2+) in a volume of 200 μl/well, for 3-4 hours at room temperature in the dark. After incubation, the coelenterazine solution was removed and cells were washed and replaced with HBSS/HEPES buffer containing both Ca^2+ and Mg^2+. 50 μl/well of histamine at varying concentrations in HBSS/HEPES containing both Ca^2+ and Mg^2+ was added to the cells and total bioluminescence was measured at 20 seconds using a Victor2 luminometer.
In an exemplary experiment, U-2OS cells were transfected, plated and loaded with coelenterazine as described in Example 3. Luminescence induced by buffer alone or by 10 μM histamine was measured also as described in Example 3. Additionally, luminescence induced by addition of Triton X-100 in the presence of 1 mM calcium was also determined in order to assess the total amount of active photoprotein detectable using saturating calcium concentrations in cells.

Assay [2] is described as follows: Calcium affinity of mitochondrial photoproteins, transient co-transfection with H1 histamine receptor in HEK293T cells (FIG. 2). The following applies: HEK293T cells co-transfected with H1 histamine receptor; Triton X-100, free calcium 17 nM to 39.6 μM; total bioluminescence at 20 seconds; read-out: EC50 value (affinity for Ca^2+). An excerpt:
Following the generation of modified forms of Clytin, the various variants were compared with wt-Aequorin for their affinity for intracellular calcium in transient transfection assays using co-transfection with the H1 histamine receptor (Genbank Accession No. NM_000861, obtained by PCR using H1-specific primers from a human brain cDNA library, forward primer 5′-[…] ATTCCTC-3′ (SEQ ID NO:60), reverse primer 5′-[…] AATTCTC-3′ (SEQ ID NO:61).
(§1) In an exemplary experiment, HEK293T cells (ATCC-CRL-11268) were transiently co-transfected with 2 μgs of each of pcDNA3.1-H1 (containing the cDNA encoding the H1 histamine receptor) and pcDNA3.1 containing the cDNAs encoding wild type mitochondrial Clytin (referred to as mt-Clytin), modified mitochondrial Clytin having a lysine to aspartic acid mutation at position 168 (referred to as mt-Clytin K168D), modified mitochondrial Clytin having a lysine to glutamic acid mutation at position 168 (referred to as mt-Clytin K168E), wild-type mitochondrial Obelin (referred to as mt-Obelin) or wild type mitochondrial Aequorin (referred to as mt-Aequorin) using the Targefect-293 reagent (TARGETING SYSTEMS). 48 hours later, the cells were detached using Accutase (MILLIPORE), centrifuged, and resuspended in […] in FreeStyle293 media (INVITROGEN), for incubation for 3-4 hours at room temperature in the dark. After incubation, the cells were centrifuged and resuspended in HBSS/HEPES buffer without Ca^2+ at a density of 1×10^6 cells/ml. Next, 100 μl/well of cell suspension for each transfection were added by the use of a Victor2 luminometer plate reader (WALLAC, […]), to a 96-well plate containing 50 μL/well Triton X-100 in MOPS/KCl buffer containing 10 mM EGTA and a series of Ca^2+ concentrations, such that free calcium concentrations ranged from 17 nM to 39.6 μM, followed by for measurement of total bioluminescence at 20 seconds.

Assay [3] deals with T2, GIP Receptor (Homo sapiens, UniProt P48546).
T2 construct: host or cells: HEK293T
T2 sequence (P48546 22-466): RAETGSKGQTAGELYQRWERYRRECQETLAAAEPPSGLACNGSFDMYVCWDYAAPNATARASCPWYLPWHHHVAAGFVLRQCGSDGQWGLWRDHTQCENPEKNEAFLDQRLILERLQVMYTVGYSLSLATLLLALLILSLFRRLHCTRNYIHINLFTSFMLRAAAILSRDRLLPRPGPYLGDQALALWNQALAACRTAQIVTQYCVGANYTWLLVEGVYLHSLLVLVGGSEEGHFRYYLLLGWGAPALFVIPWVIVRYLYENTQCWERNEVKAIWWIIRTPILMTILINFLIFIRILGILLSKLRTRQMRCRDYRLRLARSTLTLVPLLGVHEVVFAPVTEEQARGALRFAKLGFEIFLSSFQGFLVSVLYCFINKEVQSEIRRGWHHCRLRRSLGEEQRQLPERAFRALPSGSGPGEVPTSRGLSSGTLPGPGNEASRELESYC
As to the kind of experiment: GIP receptor-mediated bioluminescence in HEK293T cells with chimeric promiscuous G protein (FIG. 5, Table II). The following applies: for % GPCR/total: signal induced by maximal GIP (1 μM) as percentage of signal induced by Triton X-100 with 1 mM Ca^2+; for Signal: background with GIP: signal induced by maximal GIP (1 μM) divided by signal induced by buffer alone. The procedure: However, coexpression of GIP receptor with a chimeric G protein containing sequences from Gαs and Gαq enable the GIP receptor to stimulate calcium flux.
The results of the dose response curve to varying concentrations of GIP with a subset of the photoproteins are summarized in FIG. 5.
(§2) Signal to background ratio was calculated as the signal induced by maximal GIP (1 μM) divided by the signal induced by buffer alone. The EC50 value for calcium was determined as described above for FIG. 2 for mitochondrially targeted photoproteins transfected into HEK293T cells in the absence of a cotransfected GPCR or G protein. Affinity for calcium was correlated with the properties of the amino acid side chain at residue 168 of Clytin.
The EC50 value for receptor-mediated calcium flux induced by the ligand was determined by plotting luminescence (Y-axis) versus ligand concentration applied to the cells (X-axis), and applying a sigmoidal dose-response curve-fitting algorithm (GraphPad Prism). GPCR-mediated signals of the various modified forms of Clytin having an amino acid substitution at position 168 were also related to the nature of the side chain. In addition, the subcellular location of the photoproteins (cytosolic vs mitochondrial) appeared to have an effect on GPCR-mediated signals. […] All of the other mitochondrially targeted mutants except for Clytin K168R and wild-type Clytin yielded results that were in the range of those observed for wt-Aequorin.

The nature of assay [4]: Calcium EC50 of mitochondrially targeted photoproteins in HEK293T cells without cotransfected GPCR or G protein (Table II). The conditions noted are these: no cotransfected GPCR or G protein.
Source text: as §1, §2

Where [5] appears, read: HEK293T cells, GIP Receptor + promiscuous G protein.
[6] abbreviates: HEK293T cells, GIP Receptor + promiscuous G protein, luminescence vs GIP concentration.

T1 sequence (P35367 whole entry): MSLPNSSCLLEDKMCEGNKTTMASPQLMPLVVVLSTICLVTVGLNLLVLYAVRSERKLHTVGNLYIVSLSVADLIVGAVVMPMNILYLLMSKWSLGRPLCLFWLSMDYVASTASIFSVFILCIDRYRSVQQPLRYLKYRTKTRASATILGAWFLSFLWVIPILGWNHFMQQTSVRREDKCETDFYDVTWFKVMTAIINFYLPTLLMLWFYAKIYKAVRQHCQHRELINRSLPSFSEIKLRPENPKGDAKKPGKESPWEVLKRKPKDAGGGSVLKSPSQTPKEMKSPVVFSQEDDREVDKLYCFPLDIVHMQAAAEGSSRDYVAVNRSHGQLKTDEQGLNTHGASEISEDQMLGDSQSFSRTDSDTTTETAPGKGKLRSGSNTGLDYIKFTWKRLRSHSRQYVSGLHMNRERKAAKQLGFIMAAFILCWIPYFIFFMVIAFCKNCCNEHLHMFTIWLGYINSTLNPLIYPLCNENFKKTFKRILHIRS

B1: Mt-clytin K168D: Mitochondrial K168D modified Clytin, SEQ ID NO:10 (protein)
chain: MSVLTPLLLRGLTGSARRLPVPRAKIHSLPPEGKLRPNFDNPKWVNRHKFMFNFLDINGDGKITLDEIVSKASDDICAKLGATPEQTKRHQDAVEAFFKKIGMDYGKEVEFPAFVDGWKELANYDLKLWSQNKKSLIRDWGEAVFDIFDKDGSGSISLDEWKAYGRISGICSSDEDAEKTFKHCDLDNSGDLDVDEMTRQHLGFWYTLDPNADGLYGNFVP
By EC50 is commonly meant the midpoint of the concentration-response curve. For B1, the “GPCR-mediated signal as % of the total signal” value (from here on “GPCR-mediated signal as %”) in assay [1] is about 100%. Also, the concentration for a half-maximal effect (EC50) in assay [2] amounted to 129 nM; in assay [3] (setting [6]), 9.1 nM; in assay [4] it was 160 nM. For the same molecule, in assay [3] (HEK293T cells, GIP 10^−11 to 10^−6 M), the “signal intensities, GIP dose response (FIG. 5)” value is reported as “significantly higher signal intensities than any of the wild-type photoproteins”. Moreover, the “Max signal with GIP (RLU × 10^−5)” value in assay [3] (setting [5]) is given as 7.90 RLU × 10^−5; in assay [3] (HEK293T cells, GIP Receptor + promiscuous G protein, listed as mt-Clytin K168D) it was “maximal signal”. Besides, the “EC50 for GIP (nM)” value in assay [3] (setting [6]) was “lowest EC50”. Also, the results for the “% GPCR/total” value in assay [3] and in assay [3] (listed as mt-Clytin K168D) were 34.4% and “highest % GPCR/total”, respectively. Moreover, the “Signal: background with GIP” value in assay [3] is recorded as 188.2; in assay [3] (listed as mt-Clytin K168D) it was “highest signal to background ratio”.

B2: Mt-clytin wt: Mitochondrial Wild-type Clytin (mt-Clytin), SEQ ID NO:5, with COX8 mitochondrial leader sequence (protein, listed as Clytia gregaria)
chain: MSVLTPLLLRGLTGSARRLPVPRAKIHSLPPEGKLRPNFDNPKWVNRHKFMFNFLDINGDGKITLDEIVSKASDDICAKLGATPEQTKRHQDAVEAFFKKIGMDYGKEVEFPAFVDGWKELANYDLKLWSQNKKSLIRDWGEAVFDIFDKDGSGSISLDEWKAYGRISGICSSDEDAEKTFKHCDLDNSGKLDVDEMTRQHLGFWYTLDPNADGLYGNFVP
With B2, the “GPCR-mediated signal as %” value in assay [1] was “about 30%”. The EC50 was 1350 nM in assay [2], 12.9 nM in assay [3] (setting [6]) and 545 nM in assay [4]. In assay [3] (setting [5]), the “Max signal with GIP (RLU × 10^−5)” value is on record as 3.14 RLU × 10^−5. In addition, the “% GPCR/total” value in assay [3] is 6.8%. Besides, the “Signal: background with GIP” value in assay [3] worked out at 146.5.

B3: Mt-clytin K168E: Mitochondrial K168E modified Clytin, SEQ ID NO:12 (protein)
chain: MSVLTPLLLRGLTGSARRLPVPRAKIHSLPPEGKLRPNFDNPKWVNRHKFMFNFLDINGDGKITLDEIVSKASDDICAKLGATPEQTKRHQDAVEAFFKKIGMDYGKEVEFPAFVDGWKELANYDLKLWSQNKKSLIRDWGEAVFDIFDKDGSGSISLDEWKAYGRISGICSSDEDAEKTFKHCDLDNSGELDVDEMTRQHLGFWYTLDPNADGLYGNFVP
As for B3, the 50% effective concentration (EC50) in assay [2] came out at 173 nM; in assay [3] (setting [6]), 21.6 nM; in assay [4], 176 nM. Further, the “Max signal with GIP (RLU × 10^−5)” value in assay [3] (setting [5]) is recorded as 6.07 RLU × 10^−5. The “% GPCR/total” value in assay [3] is 19.8%. The “Signal: background with GIP” value in assay [3] was determined as 120.8.

B4: Mt-aequorin: Mitochondrial Wild-type Aequorin (mt-Aequorin), SEQ ID NO:6 (protein, listed as Aequorea victoria)
chain: MSVLTPLLLRGLTGSARRLPVPRAKIHSLPPEGKLTSDFDNPRWIGRHKHMFNFLDVNHNGKISLDEMVYKASDIVINNLGATPEQAKRHKDAVEAFFGGAGMKYGVETDWPAYIEGWKKLATDELEKYAKNEPTLIRIWGDALFDIVDKDQNGAITLDEWKAYTKAAGIIQSSEDCEETFRVCDIDESGQLDVDEMTRQHLGFWYTMDPACEKLYGGAVP
With B4, in assay [1], the “GPCR-mediated signal as %” value is listed as “about 70%”. Besides, the EC50 in assay [2] turned out to be 269 nM; in assay [3] (setting [6]) it was 11.3 nM; in assay [4], 235 nM. In assay [3] (setting [5]), the “Max signal with GIP (RLU × 10^−5)” value is reported as 4.68 RLU × 10^−5. Besides, the “% GPCR/total” value in assay [3] was found to be 23.9%. In assay [3], the “Signal: background with GIP” value came to 84.7.
